This data set addresses T1, Sxl-dRBD5 (UniProt P19339 122-305).
T1 sequence: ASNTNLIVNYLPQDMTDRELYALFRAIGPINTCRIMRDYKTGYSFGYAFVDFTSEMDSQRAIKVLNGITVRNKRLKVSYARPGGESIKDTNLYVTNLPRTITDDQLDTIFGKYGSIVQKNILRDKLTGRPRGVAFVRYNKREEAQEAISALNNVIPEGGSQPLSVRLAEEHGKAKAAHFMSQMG
Nature of the data set: NMR; BMRB 52948; C-terminal helix forms on RNA binding; FP: 10 mM Tris/HCl pH 7.5, 20 mM KCl, 25 mM NaCl, 0.005% NP-40; ITC: 50 mM Tris/HCl pH 7.5, 50 or 150 mM KCl, 298 K; smFRET: 50 mM salt at 21 C, or 150 mM at 29 C for Hrp48 assays. The following applies: protein: recombinant; tags: His6-Trx-TEV removed.

The record followed here is doi:10.1101/2025.04.07.647595, “Real-time tracking of mRNP complex assembly reveals various mechanisms that synergistically enhance translation repression”.

In the case of UUUUUUUUUU (ssRNA) [U10-mer RNA], the binding result is listed as “binds”.
